Experimental data reported in US20220306764A1 (NATIONAL INSTITUTE OF BIOTECHNOLOGY IN THE NEGEV, published 2022).

B1: NB7 (VHH)
VHH: QVQLQESGGGSVQAGGSLRLSCTAPGYTDSNYYMSWFRQAPGKEREWVAGVNTGRGSTSYADSVKGRFTISQDNAKNTMFLQMNSLKPEDTAIYYCAVAACHFCDSLPKTQDEYILWGQGTQVTVSS
notes: also called nanobody 7; anti-PSMA NB7; not shown: His tag (NBs purified on Ni-NTA and detected with anti-His)
B2: NB8 (VHH)
VHH: QVQLQESGGGSVQAGGSLRLSCARSGWPYSTYSMNWFRQAPGKEREAVAGISSTMSGIIFAESKAGQFTISQDNAKNTVYLQMNNLKPEDTAIYYCAARRDYSLSSSSDDFDYWGQGTQVTVSS
notes: also called nanobody 8; PDB 6XXO; not shown: His tag (NBs purified on Ni-NTA and detected with anti-His)
B3: NB37 (VHH)
VHH: QVQLQESGGGSVEAGGSLRLSCARSGWPYSTYSMNWFRQAPGKEREAVAGISSTMSGIIFAESKAGQFTISQDNAKNTVYLQMNNLKPEDTAIYYCAARRDYSLSSSSDDFDYWGQGTQVTVSS
notes: also called nanobody 37; PDB 6XXP; not shown: His tag (NBs purified on Ni-NTA and detected with anti-His)
B4: NB13 (VHH)
VHH: QVQLQESGGGSVQTGGSLRLSCAASGYTASFSWIGYFRQAPGKEREGVAVINVGVGSTYYADSVKGRFTISRDNTENTISLEMNSLKPEDTGLYYCAGSLRWSRPPNPISEDAYNYWGQGTQVTVSS
notes: also called nanobody 13; not shown: His tag (NBs purified on Ni-NTA and detected with anti-His)

Each binder was assayed against T1, purified extracellular domain of PSMA (prostate-specific membrane antigen), residues 44-750 (UniProt Q04609 44-750) (assay: SPR (ProteOn XPR36), NB immobilised, soluble PSMA as analyte, 1:1 Langmuir, 25 C).
T1 construct: range 44-750; The limits 44-750 are stated for the immunogen; Docking used PDB 1Z8L; also called soluble PSMA; monomeric PSMA
Experimental: The bottom curve in each sensogram represents the lowest concentration, while the top curve represents the highest concentration. A FACS analysis (n=3) was used to determine the binding of these NBs (0.1-1,000 nM) to PC3-PIP (PSMA⁺) cells (1E) and to PC3-flu (PSMA⁻) cells (1F). For convenience, each fluorescence value was normalized to the fluorescence values at the highest and lowest concentrations of PC3-PIP cells.
The affinity of each NB to PSMA was determined by using surface plasmon resonance (SPR) spectroscopy on a ProteOn XPR36 chip (Bio-Rad, CA). The chip was activated by using sulfo-NHS (0.1 M N-hydroxysuccinimide) and EDC [0.4 M 1-ethyl-3-(3-dimethylaminopropyl)-carbodiimide]. Each NB (0.2 μg) was immobilized in a 10 mM sodium acetate buffer, pH 5.0, at a flow rate of 30 μl/min. Bovine serum albumin (BSA) (3 μg) was immobilized on the chip as a negative control. Unbound esters were deactivated with 1 M ethanolamine HCl at pH 8.5. […] During this time, the association between the NBs and PSMA was measured. The dissociation was measured while flowing 50 μ1/min PBST (namely, a phosphate-buffered saline with 0.005% Tween). For each protein complex, a binding sensogram was generated by subtracting the values of the PSMA response to BSA from those of the PSMA response to the NBs. The dissociation constant (KD) was determined from the Langmuir 1:1 kinetic model. The temperature throughout the binding measurements was set at 25° C.

T1 sequence (Q04609 44-750 limits assumed): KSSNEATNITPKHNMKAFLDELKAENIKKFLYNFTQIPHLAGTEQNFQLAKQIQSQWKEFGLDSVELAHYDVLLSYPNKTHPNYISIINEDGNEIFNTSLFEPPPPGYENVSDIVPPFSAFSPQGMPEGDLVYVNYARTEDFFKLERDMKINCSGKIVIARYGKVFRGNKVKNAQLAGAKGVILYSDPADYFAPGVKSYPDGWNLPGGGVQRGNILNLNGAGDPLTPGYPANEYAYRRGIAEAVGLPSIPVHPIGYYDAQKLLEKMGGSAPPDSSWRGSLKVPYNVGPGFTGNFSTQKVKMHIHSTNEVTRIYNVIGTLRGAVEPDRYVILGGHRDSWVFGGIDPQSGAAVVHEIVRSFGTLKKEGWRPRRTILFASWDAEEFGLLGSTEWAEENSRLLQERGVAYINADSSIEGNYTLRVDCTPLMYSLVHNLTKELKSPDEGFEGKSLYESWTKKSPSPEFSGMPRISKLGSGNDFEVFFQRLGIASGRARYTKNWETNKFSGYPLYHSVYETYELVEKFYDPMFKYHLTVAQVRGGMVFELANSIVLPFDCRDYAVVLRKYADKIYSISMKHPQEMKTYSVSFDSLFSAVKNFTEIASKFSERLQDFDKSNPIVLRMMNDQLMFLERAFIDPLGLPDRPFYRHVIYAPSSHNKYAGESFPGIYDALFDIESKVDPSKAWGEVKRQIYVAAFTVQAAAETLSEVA

Compared with B1, B2 is 110-fold higher in Kd: 0.055 nM for the first, 6 nM for the second.

First: B3
Second: B4
The Kd of the first is 5.7-fold higher: 3.4 nM for the first, 0.6 nM for the second.

Compared with B1, B2 is 3.1-fold higher in koff: 3.9e-05 s⁻¹ for the first, 0.00012 s⁻¹ for the second.

Compared with B3, B4 is 3.4-fold lower in koff: 7.5e-05 s⁻¹ for the first, 2.2e-05 s⁻¹ for the second.

Going from B1 to B2, the kon falls from 710000 M⁻¹ s⁻¹ to 20000 M⁻¹ s⁻¹ (36-fold).

First: B3
Second: B4
The kon of the first is 1.6-fold lower: 22000 M⁻¹ s⁻¹ for the first, 36000 M⁻¹ s⁻¹ for the second.
